Measurements as given in patent EP4755920A1 (Simcere Pharmaceutical Co., Ltd., dated 2026).
Positions count from the first letter of the chain named.

B1: IL4R-hum-18H5L1 (antibody, V domains shown)
VH: EVTLKESGPVLVKPTETLTLTCTVSGFSLTNYGVHWIRQPPGKALEWLGVIWSGGSTDYNAAFKSRLTISKDNSKSQVVLTMTNMDPVDTATYYCARNKGTRPVFDYWGQGTTVTVSS
VL: DIQMTQSPSSLSASVGDRVTITCRASENIYSYLAWYQQKPGKAPKLLIYNAKTLAEGVPSRFSGSGSGTDFTLTISSLQPEDFATYYCQHYVSPLTFGQGTKLEIK
notes: also called humanized antibody of IL4R-CHI-18, H5 + L1
B2: IL4R-hum-13H1aL2a (antibody, V domains shown)
VH: EVQLVQSGAEVKKPGASVKVSCKASGYTFTDYYMNWVRQAPGQRLEWMGTINPYNAGTGYNQKFKGRVTITVDKSASTAYMELSSLRSEDTAVYYCARSLLRRRGAMDYWGQGTTVTVSS
VL: DIVLTQSPDSLAVSLGERATINCRASKSVSTSGYGYIHWYQQKPGQPPKLLIYLVDNLESGVPDRFSGSGSGTDFTLTISSLQAEDVATYYCQHIRELYTFGGGTKVEIK
notes: also called humanized antibody of IL4R-CHI-13, H1a + L2a
B3: IL4R-hum-04H7L1 (antibody, V domains shown)
VH: EVQLQESGPGLVKPSETLSLTCTVSGYSISSDYAWNWIRQPPGKGLEWIGYISYSGSSSYNPSLKSRVTISVDTSKNQFSLKLSSVTAADTAVYYCARGGLRRRGLFDYWGQGTTVTVSS
VL: DIQLTQSPSFLSASVGDRVTITCRATSSVTYMHWYQQKPGKAPKPWIYATSNLASGVPSRFSGSGSGTEFTLTISSLQPEDFATYYCQQWSSIPLTFGQGTKLEIK
notes: also called humanized antibody of IL4R-CHI-04, H7 + L1
B4: IL4R-hum-17L1H4 (antibody, V domains shown)
VH: EVQLVQSGAEVKKPGASVKVSCKASGYTFTSYNMHWARQAPGQRLEWMGSIYPGNGDTSYNQKFKGRVTITVDKSASTAYMELSSLRSEDTAVYYCARGGRLRRGDWFAYWGQGTLVTVSS
VL: DIQMTQSPSSLSASVGDRVTITCRASENIYSYLIWYQQKPGKSPKLLIYDAKTLAEGVPSRFSGSGSGTDFTLTISSLQPEDFATYYCQHHYGTPLTFGGGTKVEIK
notes: also called humanized antibody of IL4R-CHI-17, L1 + H4
B5: IL4R-hum-14L2H2 (antibody, V domains shown)
VH: EVQLVESGGGLVQPGGSLRLSCAASGFTFSSYAMSWVRQAPEKRLEWVAIISGGGDSTYYPDSVKGRFTISRDNAKNSLYLQMNSLRAEDTAVYYCARLHYWYFDFWGQGTTVTVSS
VL: DIQMTQSPSSLSASVGDRVTITCKASEDLYNRLAWYQQKPGKAPKLLISGATSLETGVPSRFSGSGSGRDFTLTISSLQPEDFATYYCQQYWRNPYTFGGGTKVEIK
notes: also called humanized antibody of IL4R-CHI-14, L2 + H2
B6: IL4R-hum-07H1L3 (antibody, V domains shown)
VH: EVQLVQSGAEVKKPGSSVKVSCKASGYTFSEYTIHWVRQAPGQGLEWMGWFYPGRGSIKYNEKFKDRVTITADKSTSTAYMELSSLRSEDTAVYYCTRHEYRGSNYAMDYWGQGTTVTVSS
VL: DIVMTQSPDSLAVSLGERATINCRSSQSIVHSSGNTYLQWYQQKPGQSPKLLIYKVSNRFSGVPDRFSGSGSGTDFTLTISSLQAEDVAVYYCFQGSHVPPTFGGGTKVEIK
notes: also called IL4AR-hum-07H1L3; humanized antibody of IL4R-CHI-07, H1 + L3
B7: IL4R-CHI-07 (antibody, V domains shown)
VH: QVQLQQSGAELVKPGASVKLSCKASGYTFTEYTIHWVKQRSGQGLEWIGWFYPGRGSIKYNEKFKDKATLTADKSSSTVYMELSRLTSEDSAVYFCTRHEYRGSNYAMDYWGQGTSVTVSS
VL: DVLMTQTPLSLPVSLGDQASISCRSSQSIVHSSGNTYLQWYLQKPGQSPKLLIYKVSNRFSGVPDRFSGSGSGTDFTLKISRVEAEDLGVYYCFQGSHVPPTFGGGTKLEIK
notes: Chimeric IgG: murine variable regions on human IgG4 CH1-CH2-CH3 and human kappa constant regions; also called anti-IL4Rα chimeric antibody 07
B8: IL4R-CHI-13 (antibody, V domains shown)
VH: EVQLQQSGPVLVKPGASVKMSCKASGYTFTDYYMNWVKQRHGKSLDWIGTINPYNGGTGYNQKFKGKATLTVDKSSSTAYMELNSLTSEDSAVYFCARSLLRRRGAMDYWGQGTSVTVSS
VL: DIVLTQSPASLVVSLGQRATISCRASKSVSTSGYGYIHWYRQKPGQPPKLLIYLVSNLESGVPARFSGSGSGTDFTLNIHPVEEEDAATYYCQHIRELYTFGGGTKLEIK
notes: Chimeric IgG: murine variable regions on human IgG4 CH1-CH2-CH3 and human kappa constant regions; also called anti-IL4Rα chimeric antibody 13
B9: IL4R-CHI-17 (antibody, V domains shown)
VH: QAYLQQSGAELVRPGASVKMSCKASGYTFTSYNMHWAKQTPRQGLEWIGSIYPGNGDTSYNQKFKGKATLTVDKSSSTAYMQLSSLTSEDSAVYFCARGGRLRRGDWFAYWGQGTLVTVSA
VL: DIQMTQSPASLSASVGETVTITCRASENIYSYLIWYQQKQGKSPQLLVYDAKTLAEGVPSRFSGSGSGSQFSLKINSLQPEDFGTYYCQHHYGTPLTFGGGTKLELK
notes: Chimeric IgG: murine variable regions on human IgG4 CH1-CH2-CH3 and human kappa constant regions; also called anti-IL4Rα chimeric antibody 17
B10: IL4R-CHI-14 (antibody, V domains shown)
VH: B5 VH with Q3M, Q13K, R19K, A40T, S78T, N84S, A88S, V93L, Y95F, Q109T
VL: DIQMTQSSSSFSVSLGDRVTITCKASEDLYNRLAWYQQKPGNAPRLLISGATSLETGVPSRFSGSGSGRDYTLIITSLQTEDVATYYCQQYWRNPYTFGGGTKLEIK
notes: Chimeric IgG: murine variable regions on human IgG4 CH1-CH2-CH3 and human kappa constant regions; also called anti-IL4Rα chimeric antibody 14
B11: IL4R-CHI-18 (antibody, V domains shown)
VH: QVQLKQSGPGLVQPSQSLSVTCTVSGFSLTNYGVHWVRQSPGKGLEWLGVIWSGGSTDYNAAFKSRLSISKDNSKSQVFFKMNSLQADDTAIYYCARNKGTRPVFDYWGQGTTLTVSS
VL: DIQMTQSPASLSASVGETVTITCRASENIYSYLAWYQQKQGKSPQLLVYNAKTLAEGVPSRFSGSGSGTQFSLKINSLQPEDFGSYYCQHYVSPLTFGAGTKLEVK
notes: Chimeric IgG: murine variable regions on human IgG4 CH1-CH2-CH3 and human kappa constant regions; also called anti-IL4Rα chimeric antibody 18
B12: IL4R-CHI-04 (antibody, V domains shown)
VH: DVQLQESGPGLVKPSQSLSLTCTVTGYSITSDYAWNWIRQFPGNKLEWMGYISYSGSSSYNPSLKSRISITRDTSKNQFFLQLNSVTTDDTATYYCAGGGLRRRGLFDYWGQGTTLTVSS
VL: QIVLSQSPAILSASPGEKVTMTCRATSSVTYMHWYQQKPGSSPKPWIYATSNLASGVPARFSGSGSGTSYSLTISRVEAEDTATYYCQQWSSIPLTFGAGTKLELK
notes: Chimeric IgG: murine variable regions (from hybridoma IL4R-SFM-04) on human IgG4 CH1-CH2-CH3 and human kappa constant regions; also called anti-IL4Rα chimeric antibody 04

What follows are binders tested against T1, hIL4Rα-ECD(26-232)-mFc (human) (assay: competition ELISA, hIL4R-ECD-mFc captured by anti-mFc, biotinylated human IL4 as competitor).
T1 construct: also called IL4Rα-ECD protein

| IC50 [nM] | Binder |
| --- | --- |
| 2.39 | B1 |
| 1.92 | B2 |
| 1.52 | B3 |
| 1.82 | B4 |
| 2.2 | B5 |
| 1.41 | B6 |

Each binder was assayed against T2, hIL4Rα-ECD(26-232)-His (human, UniProt P24394 26-232) (assay: SPR (Biacore 8K), antibody captured on Protein A, antigen as analyte, 1:1 model).
T2 construct: Labelled with biotin (NH2-reactive) for the ELISA; unlabelled as analyte in Biacore; also called hIL4Rα-ECD-His

| Kd [nM] | koff [s⁻¹] | kon [M⁻¹ s⁻¹] | Binder |
| --- | --- | --- | --- |
| 0.0763 | 0.000151 | 1.98e+06 | B1 |
| 0.0692 | 9.25e-05 | 1.34e+06 | B2 |
| 0.233 | 0.000445 | 1.91e+06 | B3 |
| 0.283 | 0.000302 | 1.07e+06 | B4 |
| 0.154 | 5.07e-05 | 329000 | B5 |
| 0.315 | 0.000468 | 1.48e+06 | B6 |

Target: T2, hIL4Rα-ECD(26-232)-His
Experiment: as above
Remark: another data set of the same source

| Kd [nM] | Binder |
| --- | --- |
| 0.294 | B7 |
| 0.0779 | B8 |
| 0.289 | B9 |
| 0.097 | B10 |
| 0.0943 | B11 |
| 0.513 | B12 |
